Test results taken from patent publication US20240010750A1 (Bayer, published 2024).

How the values were obtained:
[1] = target: T1, rabbit alpha2-Antiplasmin (rabbit (Oryctolagus cuniculus)); assay: ELISA (Example 3): antigen coated at 1 ug/ml, detection with anti-human lambda light chain-peroxidase and Amplex Red, RFU [right panel]
T1 construct: Made in house in HEK293 cells, purified by Ni-IMAC and SEC (a His tag is implied but not described); also called rabbit A2AP; Oryctolagus cuniculus A2AP
T1 chain: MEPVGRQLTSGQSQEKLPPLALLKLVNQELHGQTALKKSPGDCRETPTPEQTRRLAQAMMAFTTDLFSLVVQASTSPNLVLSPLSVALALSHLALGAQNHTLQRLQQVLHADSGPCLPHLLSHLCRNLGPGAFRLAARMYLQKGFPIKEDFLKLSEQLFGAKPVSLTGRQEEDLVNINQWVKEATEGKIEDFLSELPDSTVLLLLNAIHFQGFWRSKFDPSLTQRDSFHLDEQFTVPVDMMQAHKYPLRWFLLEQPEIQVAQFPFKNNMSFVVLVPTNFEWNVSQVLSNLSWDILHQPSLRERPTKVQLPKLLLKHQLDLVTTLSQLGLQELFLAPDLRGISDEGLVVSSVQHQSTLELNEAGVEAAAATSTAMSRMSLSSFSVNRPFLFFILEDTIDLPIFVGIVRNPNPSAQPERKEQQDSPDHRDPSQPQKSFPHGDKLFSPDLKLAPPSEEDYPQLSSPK
Experimental: (§1) A standard ELISA format was used for analyzing the binding affinity of Fabs of this invention to human and rabbit alpha-2-Antiplasmin, respectively. Antigens were coated to black 384 well Maxisorp microtiter plates (Nunc; catalogue number 460518), diluted to a concentration of 1 μg/ml in 1× Coating Buffer (Candor Bioscience; catalogue number 121125). Plates were incubated overnight at 4° C. After overnight incubation, plates were washed 2× with 50 μl/well using PBS+0.05% Tween 20. Following this, 50 μl/well of blocking buffer (Smart Block; Candor Bioscience; catalogue number 113500) was added and the plates were incubated for 1 hour at room temperature. Afterwards, plates were washed for 3× using […] PBS+0.05% Tween 20 buffer. Fabs of this invention were added at different concentrations in a final volume of 30 μl/well. Plates were incubated for 1 hour at room temperature. Following this incubation step, plates were washed for 3× using 50 μl/well of a PBS+0.05% Tween 20 buffer. For the detection of bound Fabs and full-length antibodies, the anti-Human Lambda Light Chains (Bound and Free)—Peroxidase antibody (Sigma; catalogue number A5175) was diluted by the factor of 1:10.000 in 10% Blocking Buffer. […]
(§2) For measurement, the Infinite f500 reader (Tecan) was used. Measurement mode: Fluorescence; Top reading; Ex 535 nm; Em 590 nm.

[2] = target: T2, cynomolgus alpha2-Antiplasmin (cynomolgus (Macaca fascicularis), UniProt P08697 28-491 (human entry)); assay: ELISA (Example 3): antigen coated at 1 ug/ml, detection with anti-human lambda light chain-peroxidase and Amplex Red, RFU
T2 construct: Made in house in the same way as the rabbit protein; also called cynomolgus A2AP; Macaca fascicularis A2AP
T2 chain: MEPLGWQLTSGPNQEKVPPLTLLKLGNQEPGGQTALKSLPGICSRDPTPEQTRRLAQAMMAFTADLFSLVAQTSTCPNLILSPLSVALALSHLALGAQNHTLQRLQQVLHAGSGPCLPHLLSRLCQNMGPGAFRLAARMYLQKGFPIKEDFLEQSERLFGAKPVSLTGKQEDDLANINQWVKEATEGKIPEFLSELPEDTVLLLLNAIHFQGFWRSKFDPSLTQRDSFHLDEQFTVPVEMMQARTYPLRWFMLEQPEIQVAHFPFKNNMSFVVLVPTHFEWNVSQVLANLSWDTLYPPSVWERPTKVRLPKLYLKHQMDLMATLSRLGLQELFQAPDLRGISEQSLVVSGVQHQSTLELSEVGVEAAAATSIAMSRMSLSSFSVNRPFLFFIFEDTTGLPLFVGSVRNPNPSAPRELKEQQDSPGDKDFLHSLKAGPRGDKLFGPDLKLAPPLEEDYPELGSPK
Experimental: as §1, with “Buffer. 30 μl/well of this diluted detection antibody was added and plates are incubated for 1 hour at room temperature.” for “Buffer.”

human Plasmin = human Plasmin (human, UniProt P00747 97-580; P00747 581-810, limits assumed); assay: cell-based or functional assay
[3] = target: T3, A2AP peptides with the consensus motif SRMSLSS (human); assay: PEPperCHIP peptide microarray, antibody at 1 µg/ml
T3 construct: Consensus motif shared by the reacting peptides of the PEPperCHIP arrays (linear 15-mers; cyclic 7-, 10- and 13-mers closed by a thioether)
T3 peptide: SRMSLSS
Experimental: (§3) Antibodies were incubated on the Microarray in concentrations of 1 μg/ml, 10 μg/ml and 100 μg/ml in incubation buffer. Incubation time was 16 h at 4° C. and shaking at 140 rpm.
(§4) As secondary antibody the goat anti-human IgG (Fc) DyLight680 was used at a dilution of 1:5000. This detection antibody was incubated on the Microarray at 45 min staining in incubation buffer at room temperature.
(§5) Microarray image analysis was done with PepSlide® Analyzer. A software algorithm was used to break down fluorescence intensities of each spot into raw, foreground and background signal, and calculated averaged median foreground intensities and spot-to-spot deviations of spot duplicates. Based on averaged median foreground intensities, an intensity map was generated and interactions in the peptide map highlighted by an intensity color code with red for high and white for low spot intensities. Averaged spot intensities of the assays were plotted with the antibody samples against the antigen sequence from the N- to the C-terminus to visualize overall spot intensities and signal-to-noise ratios. The intensity plots were correlated with peptide and intensity maps as well as with visual inspection of the microarray scans to identify the epitopes of the tested antibodies.

[4] = target: T1, rabbit alpha2-Antiplasmin; assay: ELISA, coated antigen, 3rd exp.
Experimental: as §1, §2

[5] = target: T3, A2AP peptides with the consensus motif …; assay: PEPperCHIP peptide microarray, antibody at 10 µg/ml
Experimental: as §3, §4, §5

Sequence of human Plasmin (P00747 97-580 limits assumed, chain 1 of 2): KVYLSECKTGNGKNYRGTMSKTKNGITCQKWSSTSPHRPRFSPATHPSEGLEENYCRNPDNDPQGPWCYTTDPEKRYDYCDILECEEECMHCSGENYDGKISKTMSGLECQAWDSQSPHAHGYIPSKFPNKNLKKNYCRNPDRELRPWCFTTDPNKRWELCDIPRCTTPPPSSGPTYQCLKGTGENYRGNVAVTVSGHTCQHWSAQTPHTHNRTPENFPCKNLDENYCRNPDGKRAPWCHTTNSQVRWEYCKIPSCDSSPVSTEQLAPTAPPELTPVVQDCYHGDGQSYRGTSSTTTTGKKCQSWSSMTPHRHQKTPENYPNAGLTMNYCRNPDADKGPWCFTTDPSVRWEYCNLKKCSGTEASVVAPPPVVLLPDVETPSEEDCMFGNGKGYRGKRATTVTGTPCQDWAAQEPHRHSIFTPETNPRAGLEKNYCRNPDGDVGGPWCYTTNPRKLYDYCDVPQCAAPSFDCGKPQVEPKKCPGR
Sequence of human Plasmin (P00747 581-810 limits assumed, chain 2 of 2): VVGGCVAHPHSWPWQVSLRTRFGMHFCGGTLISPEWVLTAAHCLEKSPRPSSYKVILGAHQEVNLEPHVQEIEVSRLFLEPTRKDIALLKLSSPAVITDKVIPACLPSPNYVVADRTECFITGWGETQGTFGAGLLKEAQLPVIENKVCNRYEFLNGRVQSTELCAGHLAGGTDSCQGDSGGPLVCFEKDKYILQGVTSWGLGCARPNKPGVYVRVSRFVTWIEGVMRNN

B1: TPP-12387 hIgG1 (antibody, V domains shown)
VH: EVQLLESGGGLVQPGGSLRLSCAASGFTFDDYAMSWVRQAPGKGLEWVSAIGTGGGTYYADSVKGRFTISRDNSKNTLYLQMNSLRAEDTAVYYCAREYYDSSGYYHLDYWGQGTLVTVSS
VL: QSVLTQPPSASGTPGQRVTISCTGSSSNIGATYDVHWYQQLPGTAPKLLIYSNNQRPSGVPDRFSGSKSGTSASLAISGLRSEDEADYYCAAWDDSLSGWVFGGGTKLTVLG
notes: Fully human IgG1 lambda from the BioInvent n-CoDeR Fab lambda library; parental lead antibody
In the case of B1, the “EC50 (read off the curve)” value [1] is reported as about 6 nM, the “EC50 (read off the curve)” value [2] is reported as about 100 nM and the “IC50 [M], inhibition of plasmin proteolytic activity” value (human Plasmin) is reported as over 1e-05 M. For the same binder, the “signal-to-noise-ratio at 1 µg/ml” value [3] was 659, the EC50 [4] was 6.2 nM and the “signal-to-noise-ratio at 10 µg/ml” value [5] was 2260.
